Assay results reported in paper doi:10.1101/2020.10.01.322123 (bioRxiv, 2020).
Read-outs that look alike come from different tables or passages of the source.

Assays:
[1] = target: KD^pY1, mono-phosphorylated FGFR2 kinase domain (UniProt P21802); assay: MST
[2] = target: CT^C1, untagged C-terminal tail of FGFR2 (the last 58 residues) (UniProt P21802); assay: MST
JM-KD^pY1 [3] = target: JM-KD^pY1 (UniProt P21802); assay: MST
[4] = target: CT^C1, untagged C-terminal tail of FGFR2 (the last 58 residues) (UniProt P21802); assay: SPR
JM-KD^pY1 [5] = target: JM-KD^pY1 (UniProt P21802); assay: SPR
[6] = target: FGFR2 juxtamembrane region (JM) (UniProt P21802); assay: MST
[7] = target: FGFR2 juxtamembrane region (JM) (UniProt P21802); assay: MST; remark: listed apart in the source
JM-KD^Y657/658F = JM-KD^Y657/658F (UniProt P21802-3 414-764, Y657/658F)

## JM peptide 414-430
[1]
  Kd: 36.8 µM

## JM-KD^pY1 (from UniProt P21802-3 414-764) (domain or fragment)
[2]
  Kd: 0.304 µM
JM-KD^pY1 [3]
  Kd: 3.46 µM
[4]
  Kd: 0.165 µM
JM-KD^pY1 [5]
  Kd: 3.07 µM

## CT peptide 801-815
[1]
  Kd: 25.9 µM

## JM peptide 407-420
[1]
  fold weaker binding than peptide 414-430: 3 fold

## KD^pY1, mono-phosphorylated FGFR2 kinase domain (from UniProt P21802-3 465-764) (domain or fragment)
[1]
  Kd: 0.112 µM
[2]
  Kd: 3.75 µM
[6]
  Kd: 2.51 µM

B1: CT^C1, untagged C-terminal tail of FGFR2 (the last 58 residues) (domain or fragment)
chain: TTNEEYLDLSQPLEQYSPSYPDTRSSCSSGDDSVFSPDPMPYEPCLPQYPHINGSVKT
modifications: Atto488 dye in the MST assays where CT is the labelled partner
[7]
  Kd: 20.2 µM
JM-KD^Y657/658F
  Kd: 5.65 ± 1.9 µM
